Results taken from US20070293656A1, “COLLAGEN BINDING PEPTIDES” (Epix Pharmaceuticals, Inc., priority 2005, published 2007).
Like-named read-outs stand apart in the source and are kept apart here. Bridge positions count the residues as written; N and C are the ends. Square brackets hold non-standard residues; d marks the D form. Primed or numbered codes have the meaning given here. Side chains are listed from the residue outwards. Ends that are not written are not given here. * marks the point of attachment. GdT″ = Gd-DTPA chelate conjugated through a thiourea; Bip = N[C@@H](Cc1ccc(-c2ccccc2)cc1)C(=O)O; Dip = N[C@H](C(=O)O)C(c1ccccc1)c1ccccc1; Orn = NCCC[C@H](N)C(=O)O; Gd^T = not defined here; Gd^T″ = GdDTPA-thiourea; Cbz = O=C(OCc1ccccc1)*; Dap = NC[C@H](N)C(=O)O

How the values were obtained:
Experiment in all cases: dried collagen assay
[1] = target: T1, human collagen type I (acid soluble, extracted from placenta, Sigma C7774) (human, UniProt P02452 162-1218; P08123 80-1119)
T1 construct: gelled and dried as a fibril film in the assay; also called dried human collagen; h-Collagen
T1 sequence (P02452 162-1218 limits assumed, chain 1 of 2): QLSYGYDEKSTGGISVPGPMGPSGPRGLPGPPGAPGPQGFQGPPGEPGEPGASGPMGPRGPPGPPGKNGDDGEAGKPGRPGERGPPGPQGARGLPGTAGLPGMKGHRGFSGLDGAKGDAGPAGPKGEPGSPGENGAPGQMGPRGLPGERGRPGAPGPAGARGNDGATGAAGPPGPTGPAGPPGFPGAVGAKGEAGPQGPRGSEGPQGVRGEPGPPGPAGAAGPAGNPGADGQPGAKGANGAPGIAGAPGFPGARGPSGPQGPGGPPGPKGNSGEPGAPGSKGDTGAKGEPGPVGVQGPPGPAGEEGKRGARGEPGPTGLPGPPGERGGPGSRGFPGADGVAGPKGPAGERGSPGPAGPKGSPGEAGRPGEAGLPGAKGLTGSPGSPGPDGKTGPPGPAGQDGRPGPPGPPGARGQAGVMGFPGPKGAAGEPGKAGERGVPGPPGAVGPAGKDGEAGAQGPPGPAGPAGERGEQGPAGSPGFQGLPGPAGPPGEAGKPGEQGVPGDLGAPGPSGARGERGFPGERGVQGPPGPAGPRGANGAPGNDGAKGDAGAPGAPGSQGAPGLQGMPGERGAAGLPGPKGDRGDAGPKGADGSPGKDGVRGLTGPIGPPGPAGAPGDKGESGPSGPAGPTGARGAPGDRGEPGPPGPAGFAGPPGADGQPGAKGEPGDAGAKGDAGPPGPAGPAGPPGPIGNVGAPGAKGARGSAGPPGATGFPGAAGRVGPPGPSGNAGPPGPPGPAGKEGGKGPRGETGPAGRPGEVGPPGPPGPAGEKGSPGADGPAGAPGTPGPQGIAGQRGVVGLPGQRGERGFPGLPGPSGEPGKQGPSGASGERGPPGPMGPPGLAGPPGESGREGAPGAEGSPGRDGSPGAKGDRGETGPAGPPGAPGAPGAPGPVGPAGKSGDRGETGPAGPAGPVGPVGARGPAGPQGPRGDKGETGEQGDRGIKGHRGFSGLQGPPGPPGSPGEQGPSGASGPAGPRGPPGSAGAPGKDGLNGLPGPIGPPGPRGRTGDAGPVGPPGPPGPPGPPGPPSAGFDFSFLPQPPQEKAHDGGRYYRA
T1 sequence (P08123 80-1119 limits assumed, chain 2 of 2): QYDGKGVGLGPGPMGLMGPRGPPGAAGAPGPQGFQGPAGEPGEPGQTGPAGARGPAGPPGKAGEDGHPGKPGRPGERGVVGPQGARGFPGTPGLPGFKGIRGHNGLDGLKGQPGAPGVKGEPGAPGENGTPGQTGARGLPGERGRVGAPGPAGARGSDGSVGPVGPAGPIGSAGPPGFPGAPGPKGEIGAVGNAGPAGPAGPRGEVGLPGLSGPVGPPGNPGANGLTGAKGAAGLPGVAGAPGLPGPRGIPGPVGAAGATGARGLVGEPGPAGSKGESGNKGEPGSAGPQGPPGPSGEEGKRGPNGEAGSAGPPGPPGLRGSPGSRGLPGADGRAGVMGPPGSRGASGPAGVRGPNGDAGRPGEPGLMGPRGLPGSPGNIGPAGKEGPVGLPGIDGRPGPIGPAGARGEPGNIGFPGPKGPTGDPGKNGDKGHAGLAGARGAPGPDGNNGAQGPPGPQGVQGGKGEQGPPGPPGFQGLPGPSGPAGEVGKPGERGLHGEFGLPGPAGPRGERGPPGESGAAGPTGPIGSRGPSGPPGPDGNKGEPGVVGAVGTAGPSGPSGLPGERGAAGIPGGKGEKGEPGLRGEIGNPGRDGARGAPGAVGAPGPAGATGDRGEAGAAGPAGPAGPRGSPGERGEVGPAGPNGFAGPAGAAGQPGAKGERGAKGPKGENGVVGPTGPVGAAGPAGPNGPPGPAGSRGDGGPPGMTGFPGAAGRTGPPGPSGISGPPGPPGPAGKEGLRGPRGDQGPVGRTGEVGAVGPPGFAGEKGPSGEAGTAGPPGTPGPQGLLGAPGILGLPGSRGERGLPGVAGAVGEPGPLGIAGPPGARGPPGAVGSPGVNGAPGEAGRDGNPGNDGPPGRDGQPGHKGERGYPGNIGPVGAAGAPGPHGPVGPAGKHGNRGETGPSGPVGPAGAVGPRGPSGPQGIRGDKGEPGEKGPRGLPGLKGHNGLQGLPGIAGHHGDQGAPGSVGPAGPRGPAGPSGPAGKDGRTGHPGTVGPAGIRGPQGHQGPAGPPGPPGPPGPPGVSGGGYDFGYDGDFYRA
Method: (§1) An additional 90 μL is reserved in a HPLC glass vial as a measure of the total concentration.

[2] = target: T2, rat collagen (acid soluble, type I, rat tail, Upstate 08-115) (rat, UniProt P02454 152-1207; P02466 86-1125)
T2 construct: also called dried rat collagen; insoluble rat collagen
T2 sequence (P02454 152-1207 limits assumed, chain 1 of 2): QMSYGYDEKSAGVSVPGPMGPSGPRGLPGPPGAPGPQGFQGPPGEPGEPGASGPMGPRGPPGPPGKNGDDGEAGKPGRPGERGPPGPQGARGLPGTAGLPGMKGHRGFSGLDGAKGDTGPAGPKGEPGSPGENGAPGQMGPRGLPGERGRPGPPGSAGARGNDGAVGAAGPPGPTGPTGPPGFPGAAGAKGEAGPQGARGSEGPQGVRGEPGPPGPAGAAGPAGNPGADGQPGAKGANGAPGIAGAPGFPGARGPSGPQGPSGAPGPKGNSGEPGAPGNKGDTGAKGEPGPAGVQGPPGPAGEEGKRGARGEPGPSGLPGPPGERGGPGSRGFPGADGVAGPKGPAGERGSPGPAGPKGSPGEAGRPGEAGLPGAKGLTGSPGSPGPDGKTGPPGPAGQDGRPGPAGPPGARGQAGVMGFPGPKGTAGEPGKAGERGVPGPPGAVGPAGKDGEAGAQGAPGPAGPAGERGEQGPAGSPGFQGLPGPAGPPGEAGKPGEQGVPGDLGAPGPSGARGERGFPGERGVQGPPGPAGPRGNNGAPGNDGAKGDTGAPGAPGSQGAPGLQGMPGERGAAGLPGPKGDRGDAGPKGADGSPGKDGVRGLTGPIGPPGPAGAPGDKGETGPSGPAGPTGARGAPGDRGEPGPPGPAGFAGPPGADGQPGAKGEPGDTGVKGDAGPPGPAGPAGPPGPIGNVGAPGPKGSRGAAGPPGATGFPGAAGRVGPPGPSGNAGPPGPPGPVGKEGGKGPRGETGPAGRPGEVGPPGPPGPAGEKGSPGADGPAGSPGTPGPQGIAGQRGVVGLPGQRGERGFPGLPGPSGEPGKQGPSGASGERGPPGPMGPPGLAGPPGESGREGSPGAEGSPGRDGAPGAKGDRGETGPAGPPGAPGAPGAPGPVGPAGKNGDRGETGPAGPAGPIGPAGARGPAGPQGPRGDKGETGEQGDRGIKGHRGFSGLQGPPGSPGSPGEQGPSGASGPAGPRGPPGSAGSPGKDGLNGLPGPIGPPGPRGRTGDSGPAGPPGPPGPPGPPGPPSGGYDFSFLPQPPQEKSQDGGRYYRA
T2 sequence (P02466 86-1125 limits assumed, chain 2 of 2): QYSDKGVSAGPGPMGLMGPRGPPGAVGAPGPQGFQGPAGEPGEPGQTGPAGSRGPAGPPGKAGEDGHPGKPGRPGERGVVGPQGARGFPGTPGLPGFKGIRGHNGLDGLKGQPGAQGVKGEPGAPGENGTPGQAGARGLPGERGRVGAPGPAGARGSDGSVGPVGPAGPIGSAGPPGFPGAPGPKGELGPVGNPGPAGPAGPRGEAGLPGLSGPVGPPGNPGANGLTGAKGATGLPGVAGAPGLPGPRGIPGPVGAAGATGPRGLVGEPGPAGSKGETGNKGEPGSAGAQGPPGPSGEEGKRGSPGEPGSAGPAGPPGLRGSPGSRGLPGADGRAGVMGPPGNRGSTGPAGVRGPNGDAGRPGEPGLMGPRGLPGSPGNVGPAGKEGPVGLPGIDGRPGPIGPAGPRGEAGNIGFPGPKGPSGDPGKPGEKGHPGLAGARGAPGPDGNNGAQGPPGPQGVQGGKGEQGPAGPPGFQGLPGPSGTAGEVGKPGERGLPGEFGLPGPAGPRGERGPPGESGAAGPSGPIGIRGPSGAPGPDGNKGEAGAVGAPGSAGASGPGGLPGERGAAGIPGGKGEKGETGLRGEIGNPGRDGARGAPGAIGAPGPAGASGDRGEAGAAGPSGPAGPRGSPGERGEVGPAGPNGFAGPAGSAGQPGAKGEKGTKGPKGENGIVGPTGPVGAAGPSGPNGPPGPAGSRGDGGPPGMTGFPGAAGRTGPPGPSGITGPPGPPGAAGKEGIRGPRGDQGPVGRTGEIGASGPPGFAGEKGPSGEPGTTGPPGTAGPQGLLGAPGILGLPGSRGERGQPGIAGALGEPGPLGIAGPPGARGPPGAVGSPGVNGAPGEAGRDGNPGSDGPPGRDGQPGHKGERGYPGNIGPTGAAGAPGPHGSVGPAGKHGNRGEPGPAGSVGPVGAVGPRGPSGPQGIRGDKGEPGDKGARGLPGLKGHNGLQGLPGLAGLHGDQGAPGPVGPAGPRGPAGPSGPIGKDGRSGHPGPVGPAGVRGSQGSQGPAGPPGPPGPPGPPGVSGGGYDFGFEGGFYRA
Method: as §1

[3] = target: T1, human collagen type I (acid soluble, …); remark: listed apart in the source
[4] = target: T2, rat collagen (acid soluble, type I, rat …); remark: listed apart in the source
[5] = target: rat collagen (acid soluble, type I, rat tail, Upstate 08-115) (rat) (UniProt P02454)
rat collagen (acid soluble, type I, rat tail, Upstate 08-115) (rat), sequence (P02454 152-1207 limits assumed, chain 1 of 2): as the sequence (P02454 152-1207 limits assumed, chain 1 of 2) above
rat collagen (acid soluble, type I, rat tail, Upstate 08-115) (rat), sequence (P02466 86-1125 limits assumed, chain 2 of 2, further chain): as the sequence (P02466 86-1125 limits assumed, chain 2 of 2) above

[6] = target: T1, human collagen type I (acid soluble, …); remark: listed apart in the source
[7] = target: T2, rat collagen (acid soluble, type I, rat …); remark: listed apart in the source
[8] = target: human collagen type I (acid soluble, extracted from placenta, Sigma C7774) (human) (UniProt P02452)
human collagen type I (acid soluble, extracted from placenta, Sigma C7774) (human), sequence (P02452 162-1218 limits assumed, chain 1 of 2): as the sequence (P02452 162-1218 limits assumed, chain 1 of 2) above
human collagen type I (acid soluble, extracted from placenta, Sigma C7774) (human), sequence (P08123 80-1119 limits assumed, chain 2 of 2, further chain): as the sequence (P08123 80-1119 limits assumed, chain 2 of 2) above

[9] = target: T2, rat collagen (acid soluble, type I, rat …); remark: listed apart in the source
[10] = target: T1, human collagen type I (acid soluble, …); remark: listed apart in the source
[11] = target: T2, rat collagen (acid soluble, type I, rat …); remark: listed apart in the source
[12] = target: T1, human collagen type I (acid soluble, …); remark: listed apart in the source
[13] = target: T2, rat collagen (acid soluble, type I, rat …); remark: listed apart in the source
[14] = target: T1, human collagen type I (acid soluble, …); remark: listed apart in the source

## YHACYQAGCWIY (disulfide 4-9 (inferred)) [SEQ ID NO: 106]
[1]
  % bound: 9%
[2]
  % bound: 24%

## YHACYAAGCWIW (disulfide 4-9 (inferred)) [SEQ ID NO: 134]
[3]
  % bound: 14%
[4]
  % bound: 1%

## YHACYQAGCWAW (disulfide 4-9 (inferred)) [SEQ ID NO: 137]
[3]
  % bound: 4%
[5]
  % bound: 7%

## YHACYQAACWIW (disulfide 4-9 (inferred)) [SEQ ID NO: 135]
[3]
  % bound: 72%
[4]
  % bound: 88%

## YHACAQAGCWIW (disulfide 4-9 (inferred)) [SEQ ID NO: 133]
[3]
  % bound: 4%
[4]
  % bound: 5%

## AHACYQAGCWIW (disulfide 4-9 (inferred)) [SEQ ID NO: 131]
[3]
  % bound: 7%
[4]
  % bound: 12%

## YHACYQAGCAIW (disulfide 4-9 (inferred)) [SEQ ID NO: 136]
[3]
  % bound: 2%
[4]
  % bound: 2%

## YHACYQ[dA]GCWIW (disulfide 4-9 (inferred)) [SEQ ID NO: 158]
[6]
  % bound: 56%
[7]
  % bound: 66%

## YHACYQAGCW[dI]W (disulfide 4-9 (inferred)) [SEQ ID NO: 161]
[6]
  % bound: 8%
[7]
  % bound: 10%

B1: Comp ID 941 (peptide)
peptide: Cbz-GQWHCT[Orn](Gd^T″)RFPHHYCLYG
modifications: disulfide 5-14; not fully specified (C-terminus); printed as cbz-GQWHCT-Orn(Gd^T)-RFPHHYCLYG
[8]
  % bound: 8%
[9]
  % bound: 5%

## DWTCSGNHLTWYCNYG (disulfide 4-13 (inferred)) [SEQ ID NO: 118]
[10]
  % bound: 68%
[11]
  % bound: 67%

## WTCSGDEYTWHCNYE (disulfide 3-12 (inferred)) [SEQ ID NO: 114]
[10]
  % bound: 19%
[11]
  % bound: 14%

## YSACYQAGCWIW (disulfide 4-9 (inferred)) [SEQ ID NO: 109]
[1]
  % bound: 21%
[2]
  % bound: 37%

## YHACYQAGCWIA (disulfide 4-9 (inferred)) [SEQ ID NO: 138]
[3]
  % bound: 2%
[4]
  % bound: 1%

## YAACYQAGCWIW (disulfide 4-9 (inferred)) [SEQ ID NO: 132]
[3]
  % bound: 53%
[4]
  % bound: 37%

## YHAC[dY]QAGCWIW (disulfide 4-9 (inferred)) [SEQ ID NO: 156]
[6]
  % bound: 38%
[7]
  % bound: 48%

## DWTCSGDPYTWHCNYE (disulfide 4-13 (inferred)) [SEQ ID NO: 115]
[10]
  % bound: 39%
[11]
  % bound: 23%

## DWTCSGDEFTWHCNYE (disulfide 4-13 (inferred)) [SEQ ID NO: 119]
[10]
  % bound: 55%
[11]
  % bound: 55%

## YHACYQAGC[dW]IW (disulfide 4-9 (inferred)) [SEQ ID NO: 160]
[6]
  % bound: 20%
[7]
  % bound: 12%

## GQWTCSGDEYTWHCNY (disulfide 5-14 (inferred)) [SEQ ID NO: 123]
[12]
  % bound: 59%
[13]
  % bound: 72%

## YH[dA]CYQAGCWIW (disulfide 4-9 (inferred)) [SEQ ID NO: 154]
[6]
  % bound: 24%
[7]
  % bound: 21%

B2: Comp ID 967 (peptide)
peptide: {Gd^T″}-GK([Gly-Gd^T″])WHCTTYFPHHYCL[Dip]G
modifications: disulfide 5-14 (inferred); not fully specified (C-terminus); printed as Gd^T-G-K(G.Gd^T)-WHCTTYFPHHYCL-Dip-G
[9]
  % bound: 4%

## Y[dH]ACYQAGCWIW (disulfide 4-9 (inferred)) [SEQ ID NO: 153]
[6]
  % bound: 0%
[7]
  % bound: 0%

## GQWHCTTRFPHHYXLYG (not fully specified; Gd^T-GQWHCTTRFPHHY-Pen-LYG) [Comp ID 906]
[9]
  % bound: 5%

B3: Comp ID 939 (peptide)
peptide: Cbz-GQWHCT[Dap](Gd^T″)RFPHHYCLYG
modifications: disulfide 5-14; not fully specified (C-terminus); printed as cbz-GQWHCT-Dpr(Gd^T)-RFPHHYCLYG
[14]
  % bound: 4%
[9]
  % bound: 5%

## YSACYQAGCYIY (disulfide 4-9 (inferred)) [SEQ ID NO: 110]
[1]
  % bound: 10%
[2]
  % bound: 2%

## YHACY[dQ]AGCWIW (disulfide 4-9 (inferred)) [SEQ ID NO: 157]
[6]
  % bound: 37%
[7]
  % bound: 35%

B4: Comp ID 951 (peptide)
peptide: {Gd^T″}-GK([Gly-Gd^T″])WHCTTYFPHH[Bip]CLYG
modifications: disulfide 5-14; not fully specified (C-terminus); printed as Gd^T-G-K(G.Gd^T)-WHCTTYFPHH-Bip-CLYG
[14]
  % bound: 45%

## DWTCSGDHLTWHCNYG (disulfide 4-13 (inferred)) [SEQ ID NO: 116]
[10]
  % bound: 58%
[11]
  % bound: 35%

## DWTCSGDHLTWKCNYG (disulfide 4-13 (inferred)) [SEQ ID NO: 117]
[10]
  % bound: 38%
[11]
  % bound: 24%

## GQWTCSGDEYTWHCNYE (disulfide 5-14 (inferred)) [SEQ ID NO: 122]
[12]
  % bound: 71%
[13]
  % bound: 71%

## {GdT″}-GK([Gly-GdT″])WHCTTYFPHH[Dip]CLYG (disulfide 5-14; not fully specified (C-terminus)) [Comp ID 968]
[9]
  % bound: 64%

## GQWHCTTSFPHHYCLYG (not fully specified; Gd^T-GQWHCTTSFPHHYCLYG) [Comp ID 869]
[14]
  % bound: 46%
[9]
  % bound: 37%

## GQWHCTTRFPHAYCLYG (not fully specified; Gd^T-GQWHCTTRFPHAYCLYG) [Comp ID 878]
[8]
  % bound: 8%
[9]
  % bound: 9%

B5: Comp ID 898 (peptide)
peptide: {Gd^T}-GQWHCT[dS]RFPHHYCLYG
modifications: disulfide 5-14 (inferred); not fully specified (C-terminus); printed as Gd^T-GQWHCTsRFPHHYCLYG; reading uncertain
[14]
  % bound: 5%

B6: Comp ID 900 (peptide)
peptide: {Gd^T}-GQWHCT[dR]RFPHHYCLYG
modifications: disulfide 5-14 (inferred); not fully specified (C-terminus); printed as Gd^T-GQWHCTrRFPHHYCLYG; reading uncertain
[14]
  % bound: 4%

B7: Comp ID 897 (peptide)
peptide: {Gd^T}-GQWHCT[dN]RFPHHYCLYG
modifications: disulfide 5-14 (inferred); not fully specified (C-terminus); printed as Gd^T-GQWHCTnRFPHHYCLYG; reading uncertain
[14]
  % bound: 4%
